Assay results taken from US20240043507A1 (RQ BIOTECHNOLOGY, published 2024).

Experiments:
[1] = target: T1, SARS-CoV-2 receptor binding domain (RBD), native (SARS-CoV-2, UniProt P0DTC2 330-532); assay: BLI, RBD/Fab; de-glycosylated Fab 316
T1 construct: range 330-532

[2] = target: T1, SARS-CoV-2 receptor binding domain …; assay: BLI, RBD/Fab; de-glycosylated Fab 88
[3] = target: T1, SARS-CoV-2 receptor binding domain …; assay: BLI, RBD/Fab; glycosylated Fab 88

B1: Fab 316, de-glycosylated (Fab, V domains shown)
VH: not shown
VL: QAVLTQPPSASGSPGQSVTISCTGTSSDVGGYNYVSWYQQHPGKAPKLMIYEVSKRPSGVPDRFSGSKSGNTASLTVSGLQAEDEADYYCSSYAGSNHWVFGGGTKLTVL
Kd [1]: 1 nM

B2: Fab 88, de-glycosylated (Fab, V domains shown)
VH: QLQLQESGPGLVKPSQTLSLTCTVSGGSISSGSYNWTWIRQPAGKGLEWIGRIYNSGSTNYNPSLKSRVTISVDTSKNQLSLKVRSVTAADTAVYYCARHCSGGTCYPKYYYGMDVWGQGTTVTVSS
VL: QSALTQPPSVSEAPRQRVTISCSGSSSNIGNNAVNWYQQFPGKAPKLLIYYDDLLPSGVSDRFSGSKSGTSASLAISGVQSEDEADYYCAAWDDSLNVVVFGGGTKLTVL
Kd [2]: 0.8 nM

B3: Fab 88 (Fab, V domains shown)
VH: B2 VH
VL: B2 VL
notes: also called 88 Fab (glycosylated)
Kd [3]: 1.2 nM
